{
  "source": "paper PMC6599478",
  "about": "(Mucosal immunology, 2019)",
  "data": [
    {"target": "recombinant full length Tenascin-C, large isoform (TNC-L) (human, UniProt P24821 23-2201)", "sequence (P24821 23-2201)": "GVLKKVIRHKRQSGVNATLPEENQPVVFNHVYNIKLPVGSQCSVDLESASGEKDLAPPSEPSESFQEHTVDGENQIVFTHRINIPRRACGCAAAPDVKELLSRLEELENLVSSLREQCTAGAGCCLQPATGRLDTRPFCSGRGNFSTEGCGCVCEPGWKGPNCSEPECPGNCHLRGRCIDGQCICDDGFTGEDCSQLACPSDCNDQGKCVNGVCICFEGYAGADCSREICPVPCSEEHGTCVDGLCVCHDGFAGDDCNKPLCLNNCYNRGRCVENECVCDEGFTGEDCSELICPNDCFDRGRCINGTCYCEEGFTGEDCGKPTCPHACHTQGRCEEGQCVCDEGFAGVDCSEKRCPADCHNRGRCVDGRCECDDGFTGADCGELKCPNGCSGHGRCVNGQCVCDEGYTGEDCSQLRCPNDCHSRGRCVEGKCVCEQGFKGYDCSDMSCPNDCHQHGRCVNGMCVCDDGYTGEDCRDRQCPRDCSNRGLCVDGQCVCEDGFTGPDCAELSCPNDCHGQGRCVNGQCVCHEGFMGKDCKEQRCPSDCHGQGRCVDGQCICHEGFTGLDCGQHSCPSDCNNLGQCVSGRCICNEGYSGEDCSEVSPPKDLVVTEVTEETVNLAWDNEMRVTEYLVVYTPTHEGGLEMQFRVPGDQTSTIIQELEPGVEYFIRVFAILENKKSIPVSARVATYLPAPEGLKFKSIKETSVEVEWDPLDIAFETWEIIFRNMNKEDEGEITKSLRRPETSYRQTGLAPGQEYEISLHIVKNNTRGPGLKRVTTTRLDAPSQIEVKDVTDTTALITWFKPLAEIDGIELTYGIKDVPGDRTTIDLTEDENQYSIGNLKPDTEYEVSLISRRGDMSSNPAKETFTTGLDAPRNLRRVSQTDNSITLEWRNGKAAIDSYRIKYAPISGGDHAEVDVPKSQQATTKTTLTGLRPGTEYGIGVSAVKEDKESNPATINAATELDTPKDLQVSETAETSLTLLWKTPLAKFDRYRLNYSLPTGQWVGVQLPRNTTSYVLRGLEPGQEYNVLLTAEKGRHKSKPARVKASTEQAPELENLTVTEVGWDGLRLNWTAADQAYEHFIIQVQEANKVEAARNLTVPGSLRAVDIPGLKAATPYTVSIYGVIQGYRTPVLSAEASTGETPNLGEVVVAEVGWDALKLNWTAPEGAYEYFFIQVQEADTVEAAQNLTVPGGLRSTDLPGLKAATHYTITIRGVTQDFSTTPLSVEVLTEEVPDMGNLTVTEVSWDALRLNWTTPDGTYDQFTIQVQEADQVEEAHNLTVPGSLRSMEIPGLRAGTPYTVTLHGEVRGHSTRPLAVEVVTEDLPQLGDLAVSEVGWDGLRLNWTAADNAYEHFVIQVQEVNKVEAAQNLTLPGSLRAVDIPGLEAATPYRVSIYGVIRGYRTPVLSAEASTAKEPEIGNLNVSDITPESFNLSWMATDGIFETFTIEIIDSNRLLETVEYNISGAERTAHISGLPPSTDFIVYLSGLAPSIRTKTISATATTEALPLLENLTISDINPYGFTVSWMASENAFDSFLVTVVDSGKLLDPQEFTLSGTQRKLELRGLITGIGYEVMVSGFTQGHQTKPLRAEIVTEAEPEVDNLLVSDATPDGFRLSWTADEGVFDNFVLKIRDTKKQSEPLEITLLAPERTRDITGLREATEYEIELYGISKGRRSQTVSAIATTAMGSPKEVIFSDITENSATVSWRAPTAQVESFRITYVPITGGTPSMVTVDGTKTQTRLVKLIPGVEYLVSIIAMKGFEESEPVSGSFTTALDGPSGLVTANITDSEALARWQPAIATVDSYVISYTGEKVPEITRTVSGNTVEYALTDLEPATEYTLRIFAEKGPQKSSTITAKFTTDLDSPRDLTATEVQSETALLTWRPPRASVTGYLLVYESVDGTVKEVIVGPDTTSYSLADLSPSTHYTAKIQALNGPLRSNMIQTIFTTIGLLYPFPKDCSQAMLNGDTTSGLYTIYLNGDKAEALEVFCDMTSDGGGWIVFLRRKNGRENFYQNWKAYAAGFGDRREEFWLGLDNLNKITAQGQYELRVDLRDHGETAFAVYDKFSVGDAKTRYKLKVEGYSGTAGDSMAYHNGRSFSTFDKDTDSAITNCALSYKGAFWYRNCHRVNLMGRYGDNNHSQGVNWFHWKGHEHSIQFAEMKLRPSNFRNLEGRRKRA", "test": "ELISA", "values": [
      {"binder": "TRPNYNKRKRIHIGPGRAFYTTKNIIGTIRQAH", "note": "[MN V3 complete V3 loop peptide (33 amino acid linear peptide, wild type)]", "binding result": "binds"},
      {"binder": "TRPNYNKRKRIHIGPGRAFYTTKNIIGAARQAH", "note": "[MNV3 326/327 Mutant peptide (T326A/I327A)]", "binding result": "binds"},
      {"binder": "TRPNYNKRKRIHIGPGRAFYTTAAIIGAARQAH", "note": "[MNV3 Quad Mutant peptide (K321A/N322A/T326A/I327A)]", "binding result": "binds"},
      {"binder": "TRPNYNKRKRIHIGPGRAFYTTAAIIGTIRQAH", "note": "[MNV3 321/322 Mutant peptide (K321A/N322A)]", "binding result": "binds"}
    ]}
  ]
}
